The results in this text go back to article PMC2900545.

Substrate in this series: CCc1c2c(nc3ccc(O)cc13)-c1cc3c(c(=O)n1C2)COC(=O)[C@]3(O)CC
Put plainly: purified protein. The following applies: UDPGA.

B1: UGT1A1 (Homo sapiens) (protein)
chain: HAGKILLIPVDGSHWLSMLGAIQQLQQRGHEIVVLAPDASLYIRDGAFYTLKTYPVPFQREDVKESFVSLGHNVFENDSFLQRVIKTYKKIKKDSAMLLSGCSHLLHNKELMASLAESSFDVMLTDPFLPCSPIVAQYLSLPTVFFLHALPCSLEFEATQCPNPFSYVPRPLSSHSDHMTFLQRVKNMLIAFSQNFLCDVVYSPYATLASEFLQREVTVQDLLSSASVWLFRSDFVKDYPRPIMPNMVFVGGINCLHQNPLSQEFEAYINASGEHGIVVFSLGSMVSEIPEKKAMAIADALGKIPQTVLWRYTGTRPSNLANNTILVKWLPQNDLLGHPMTRAFITHAGSHGVYESICNGVPMVMMPLFGDQMDNAKRMETKGAGVTLNVLEMTSEDLENALKAVINDKSYKENIMRLSSLHKDRPVEPLDLAVFWVEFVMRHKGAPHLRPAAHDLTWYQYHSLDVIGFLLAVVLTVAFITFKCCAYGYRKCLGKKGRVKKAHKSKTH
What is called Km is the substrate concentration at which the rate is half of its maximum. B1: the Km came to 2.5 ± 0.3 µM.
